Test results as given in the nanobody polyreactivity screen of Harvey et al. (2022).

Test: yeast display, Sf9 membrane polyspecificity reagent, FACS + sequencing; frameworks hold sequencing errors
In short: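 Nanobodies from a synthetic yeast display library (Saccharomyces cerevisiae BJ5465), induced 36–48 hours with galactose, were stained 1 hour at 4 °C with 10% biotinylated, detergent-solubilized Sf9 membrane reagent, enriched on streptavidin microbeads, then FACS-sorted. Anti-HA (expression) and streptavidin (reagent binding) fluorescence set low and high (top ~1%) gates. Polyreactivity labels come from the gate of origin. Genes were colony-PCR amplified, MiSeq 2 × 250 sequenced and filtered by CDR length.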

Row | Sequence | polyreactivity (PSR sort gate)
1 | QVQLVESGGGLVQAGGSLRLSCAASGRTFDSNAMGWYRQAPGKERELVAAISWSGGSTYYADSVKGRFTISRDNAKNTVYLQMNSLKPEDTAVYYCNRLGRHAPATRYGYWGQGTQVTVSS | high polyreactivity
2 | QVQLVESGGGLVQAGGSLRLSCAASGSISKINAMGWYRQAPGKERELVAAINTGDSTYYADSVKGRFTISRDNAKNTVYLQMNSLKPEDTAVYYCATVVYTWFLAEEDDYCGQGTQVTVSS | low polyreactivity
3 | QVQLVESGGGLVQAGGSLRLSCAASGSTFGNYAMGWYRQAPGKERELVAAISTSGGSTYYADSVKRRFTISRDNAKNTVYLQMNSLKPEDTAVYYCAKRLVRVRSRAVSDYYWGQGTQVTVSS | high polyreactivity
4 | QVKLVESGGGLVQAGGSLRLSCAASGSTFAGTAMGWYRQAPGKEREMVAAISWNTGSTYADSVKGRFTISRDNAKNTVYLQMNSLKPEDTAVYYCAADRSHAYYRKNRVDYWGQGTQVTVSS | low polyreactivity
5 | QVQLVESGGGLVQAGGSVRLSCAASGRIFSRKAMRWYIQAPGKERELVAAISRSGTSTYYADSVKGRFTISRDNAKNTVYLQMNSLKPEDNAVYYCAADYPAVISIRRYDYWGQGTQVTVSS | low polyreactivity
6 | QVQLQESGGGLVQAGGSLRLSCAASGYISTFSAEMGWYRQAPGKERELVASIAPGCTTSYADSVKGRFTISRDNAKNTVYLQMNSLKPEDTAVYYCAVDYTLPASFGYWGQGTQVTVSS | high polyreactivity
7 | QVQLVESGGGLVQAGGSLRLSCAASGRIFRFYAMGWSRQAPGKEREMVAVISTGGRTNYADSVKGRFTISRDNGKNTVYLQMNSLKPVDSAVYYCAAEYTNIGRYDGWNYNYWGQGTQVTVSS | high polyreactivity
8 | QVQLVDSGGGLVQAGGSLRLSCAAAGSNLSQYAMGWYRQAPGKERELVAAITYGGGSTYYADSVKGRFTISRDNAKKTVHIQMISLKPEDPAVYYCALEFTYWGDPYDYWGQGTQVTVSS | low polyreactivity
9 | QVQLVESGGGLVQAGGSLRLSCAASGRIFNYAMGWYRQAPGKERELVAAISRGGGRTYYADSVKGRFTISRDNAKNTVYLQMNSLKPEDTAVYYCAADLSPEYDYWGQGTQVTVSS | high polyreactivity
10 | QVQLVESGGGLVQAGGSLRLSCAASGRTFGAYAMGWYRQAPGKERELVASISRSGGTTYYADSVKGRFTISRDNAKNTVYLQMNSLKPEDTAVYYCAAQYVRYGHYYWGQGTQVTVSS | high polyreactivity
11 | QVQLVESGGGLVQAGGSLRLSCAASGYTFFYAMAWYRQAPGKERELVASITSAASTTYADSVKGRFSISRDNAKNTVYLQMNSLKPEDTAVYYCAASHSWWFYPGYYYWGQGTQVTVSS | high polyreactivity
12 | QVQLVESGGGLVQAGGSLRLSCAASGSIFESNGMGWYRPAPGKERELVASISNGDITYYADSVKGRFTISRDNAKNTVYLQMISVKPEYTAVYYCAATLYRNYVIFRYDYWGQGTQLTVSS | low polyreactivity
13 | QVQLEESGGGLVQAGGSLRLSCAASGITFVGNAMGWYRQAPGKERELVAGIRGNGGSTYYADSVKGRFTISRDNAKNTVYLQMHSMNPEDTAVYYCAAAAYYADFDYWGQGTQVTVSS | low polyreactivity
14 | QVQLVESGGGLVQAGGSLRLSCAASGLTFYNNAMGWYRQAPGKERELVARISSGGSTYYADSVKGRFTISRDNAKNTVYLQMNSLKPEDTADYYCAAGRGYWWWYGYDYWGQGTQVTVSS | low polyreactivity
15 | QVQIVESGGGLVQAGGSLRLSCAASGSIFSYYAMGWYRQAPGKERELVAGITGGGSTDYADSVKGRFTISRDNAKITVYLQMISLKPEDTAVYYCSTDGKPSFYSFDYCGQGTQVTVSS | low polyreactivity
16 | QVQLVESGGGLVQAGGSLRLSCAASGRTFESYAMGWYRPAPGKERELVAAITWSGGDTYYADSVKGRFTISRDNAKNTVYLQMNSLKPEDTAVYYCAKEQGLYSVSPYDYWGQGTQVTVSS | low polyreactivity
17 | QVQLVESGGGLVQAGGSLRLSCAASGRTFGYYDMGWYRPAPGKERELVAAITWIDGRTYYADSVKGRFTISRDNAKNTVYLQMNSLKPEDTAVYYCAKRHKAGFYRTYRYGYWGQGTQVTVSS | high polyreactivity
18 | QVQLVESGGGLVQAGGSLRLSCAASGFTFERYAMGWYRQAPGKERELVAAITGSGGSTYYADSVKGRFTISRDNAKTTVYLQMNSLKPEDTAVYYCADYSAYYGCDYWGQGTQVTVSS | low polyreactivity
19 | QVQLVESGGGLVQAGGSLRLSCAASGRTFYYYAMGWYRQAPGKERELVAAINTRGTSTYYADSVKGRFTISRDNAKNTVYLQMNSLKPEDTAVYYCAVDPYGDSWEDWFRNYYYGYDYWGQGTQVTVSS | low polyreactivity
20 | QVQLVESGGGLVQAGGSLRLSCAASGSTFYANTMGWYRQAPGKERELVAAISRRGGRTYYADSVKGRFTISRDNAKNTVYLQMNSLKPDDTAVYYCARRGYSSRTIKRYNYWGQGTQVTVSS | high polyreactivity
21 | QVQLVESGGGLVQAGGSLRLSCAASGLIIKWYAMGWYRQAPGKERELVAAITRTGGSTYYADSVKGRFTISRDNAKNTVYLQMNSLKPEDTAVYYCADRPVYFRYIAYYDWTPSFDFWGQGTQVTVSS | low polyreactivity
22 | QVQLVESGGGLVQAGGSLRLSCAASGFTFRAYAMGWYRQAPGKEREFVAAISRRGGSTSYADSVKGRFTISRDIAKNTVYLQMNSQKPEDTSVYYCAADVQEEYDYWGQGTQVTVSS | high polyreactivity

Row | Sequence | polyreactivity (PSR sort gate)
23 | QVQLVESGGGLVQAGGSLRLSCAASGRIFVLNAMGWYRQAPGKERELVAAITFSGGRTYYADSVKGRFTISRDNAKNTVYLQMNSLKPEDTAVYYCATRQDWRRTYGYWGQGTQVTVSS | low polyreactivity
24 | QVQLEESGGGLVQAGGSLRLSCAASGRIFSDYAKGGYRQAPGKERELVATITSGDSTNYADSVKGRFTISRDNAKNTVYLQMNRLKPEDTAVYYCNADRFADYDYWGQGTQVTVSS | low polyreactivity
25 | QVQLVESGGGLVQAGGSLRLSCAASGIIFVINAMGWYRQAPGKERELVATITGSGTTNYADSVKGRFTISRDNAKNTVYLHMNSLKPEDTAVYYCARDDTEYARTGAYDYWGQGTQVTVSS | low polyreactivity
26 | QVQLEESVGGLVQAGGSLRLSCAASGITFYDYTMGWYRQAPGKERELVAAISSRGGSTYYADSVKGRFTISRDNAKNTVYLQMNSLKPEDTAVYYCNARYNSWRYLAQYNYWGQGTQVTVSS | high polyreactivity
27 | QVQLVESGGGLVQAGGSLRLSCAASGYLIGGNAMGWYRQAPGKERELVAVISSRAGRTYYADSVKGRFTISRDNAKNTVYLQMNSLKPEDTAVYYCNRVFSYQYKRDYWGQGTQVTVSS | high polyreactivity
28 | QVQLVESGGGLVQAGGSLRLSCAASGSTFGGYAMGWYRQAPGKERELVAAISNGDRTNYADSVKGRFTISRDNAKNTVYLQMNSLKPEDTAVYYCATQPLTWSSYRWDWRAQFDHWGQGTQVTVSS | low polyreactivity
29 | QVQLVESGGGLVQAGGSLRLSCAASGRTFAVYAMGWYRQAPGKERELVAAITFGGGRTYYADSVKGRFTISRDNAKITVYLQMNSLKPEDTAVYYCAADYYGTDYDYRGQGTQVTVSS | low polyreactivity
30 | QVQLVESGGGLVQAGGSLRLSCAASGLTFTTYTMGWYRQAPGKERELVAAISSRGGSTYYADSVKGRFTISRDNAKNTVYLQMNRLKPEDTAVYYCNAPRPHRMDWGQGTQVTVSS | high polyreactivity
31 | QVQLVESGGGLVQAGASLRVSCAASGSTFNYNAMGWYRQAPGKERELVAAITYSGSSTYYSDSVKGRFTISRDNAKNTVYLQMNSLKPEYTAVYYCAADYWFRYGTYEYWGQGTQVSVSS | high polyreactivity
32 | QVQLVESGGGLVQAGGSLRLSCAASGFTLYYNAMGWYRQAPGKERELVAAINIGDSTNYADSVKGRFTISRDNAKNTVYLQMNSLKPEDTAVYYCAAVLLPYGVFYTVAINVDYWGQGTQVTVSS | low polyreactivity
33 | QVQLVESGGGLVQAGGSLRLSCAASGRIFVAYAMGWYRQAPGKQRELVADIDYIDGSTYYADSVKGRFTISRDNAKNTVYLQMNSLKPEDTAVYYCAVDSLYYAGYYDYWGQGTQVTVSS | high polyreactivity
34 | QVQLVESGGGLVQAGGSLRLSCAASGSTFGLNAMGWYRQAPGKERELVAAISYSDTTTYYADSVKGRFTISRDNAKNTVYLQMNSLKPEDTAVYYCAAEGDYAFLYDYWGQGTQVTVSS | high polyreactivity
35 | QVQLVESGGGLVQAGGSLRLSCAASGSTFSTYAMGWYRQAPGKERELVATISKRGGSTYYADSVKGRFTISRDNAKNTVYLQMNSLKAEDTAVYYCDARWQWLNGYYYWGQGTQVSVSS | high polyreactivity
36 | QVQLVESGGGLVQAGGSLRLSCAASGLNFDKNAMGWYRQAPGNERELLAAITRSSGTTYYADSVKGRFTISRDNAKNTVYLQMNSLKPEDTAVYYCAARFIWGYWGVGYYSWGQGTQVTVSS | low polyreactivity
37 | QVQLVESGGGLVQAGGSLRLSCAASGFIFDRYAMGWYRQAPGKERELVAVISKSGGRTYYADSVKGRFTISRDHAKNTVYLQMNSLKPEDTAVYYCAAYYKSTYVTGDYWGQGTQVTVSS | high polyreactivity
38 | QVQLVESGGGLVQAGGSLRLSCAASGSIFDDYAMGGYRQAHGKERELVAAISSSGTSTYYADSVKGRFTISRDNAKNTVYLQMNCLKPEDTAVYYCAARSAILKSAYLMDYWGQGTQVTVSS | low polyreactivity
39 | QVQLVETGGGLVQAGGSLSLSCAASGSTSSRYAMGWYRQAPGKEMELVARINWNGGSTYYADSVKGRFTISRDNAKNTVYLQMNSLKPEDTAVYYCAADSFGITYVSYVSIYDFDYWGQGTQLTVSS | low polyreactivity
40 | QVQLVESGGGLVQAGGSLRLSCAASGSIFSRYAMGWYRQAPGKERELVAAISRRRGTTYYADSVKGRFTISRDNAKNTVYLHMNSLKTEDTAVYYCAAVFVTQSFIYDYYYWGQGTQVTVSS | high polyreactivity
41 | QHQLGESGGGLVQAGGRLRLSCAASGRIFHVSAMGWYREAPGKERELVAAISSGDRTYYADSGKGRFIISRDNAKNSVYLQLNSLKPEDTAVYYCWRYPAAESNYWGQGTQVTVSS | low polyreactivity
42 | QVQLVESGGGLVQAGGSLRLSCAASGRTFVSYAMGWSRQAPGKERELVATITGSTGGTYYADSVKGRFTISRDNAKNTVYLQMNSLKPEDTAVYYCNKDYYYNPGNVASGYDYWGQGTQVTVSS | low polyreactivity
43 | QVQLVESGGGLVQAGGSLRLSCADSGSIFEFNTMGWYRQAPGKERELVAAISSADTTNYADSVKGRFTISRDNAKNTVYLQMNSLKPEDTAVYYCNKELHLSATLRVLGFDYWGQGTQVTVSS | low polyreactivity
